Tests used:
[1] = target: human amylin 1 receptor (CTR + RAMP1) (human) (UniProt O60894)
[2] = target: human calcitonin receptor, transcript variant 2 (CT(a) subtype), expressed alone (human)

human amylin, sequence (P10997 34-70): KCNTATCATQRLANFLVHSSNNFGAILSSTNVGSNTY
UniProt O60894, sequence (O60894 whole entry, looked up): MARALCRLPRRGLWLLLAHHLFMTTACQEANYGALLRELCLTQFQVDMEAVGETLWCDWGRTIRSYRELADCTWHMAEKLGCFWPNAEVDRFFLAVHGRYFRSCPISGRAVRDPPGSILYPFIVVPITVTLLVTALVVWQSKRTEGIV

**Q.** Which pEC50 of the amylin-induced current (two-electrode voltage clamp, -70 mV), oocytes expressing AMY1-R, amylin 0.01 to 10 μM [1] does the source give for “human amylin (from UniProt P10997 34-70) (peptide)” here?
**A.** 6.33 -log M

**Q.** What does the source list for “human α-CGRP (calcitonin gene-related peptide) (from UniProt P06881 83-119)”?
**A.** inward current (two-electrode voltage clamp, -70 mV), oocytes expressing CTR, CGRP 0.01 to 10 μM; maximum at 10 μM [2]: -1.07 μA; pEC50 of the CGRP-induced inward current (two-electrode voltage clamp, holding potential -70 mV), oocytes expressing CTR [2]: 5.42 -log M

From article PMC9134599
